This note sets out measurements from the RNAGym collection of RNA variant scans (doi:10.1073/pnas.2313332121).

B1: TPR t1 (parent)
chain: GACCAAUCUGCCCUCAGAGCUCGAGAACAUCUUCGGAUGCAGAGGAGGCAGGCUUCGGUGGCGCGAUAGCGCCAACGUCCUCAACCUCCAAUGCAUCCCACCACAUGAUGAUGCCUGAAGAGCCUUGGUUUUUUG

The variants in the data set derive from B1. In words: polymerase ribozyme fitness, log enrichment relative to wild type (log ratio); higher = more active; in vitro selection for triplet polymerase activity. In a few lines:
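A heterodimeric triplet polymerase ribozyme had each of its subunits mutagenized by PCR into a library, which was transcribed. One round of in vitro selection, done in triplicate, annealed each library with a biotinylated primer, its partner subunit and triplets, then incubated it frozen at −7 °C before gel excision of extended constructs, streptavidin-bead capture and RT-PCR. Fitness is the logarithm of genotype enrichment relative to wild-type enrichment, based on Illumina sequencing of inputs and outputs and inverse-variance-weighted replicate averages. A base-2 logarithm is used, and genotypes were kept only with ≥10 input reads and ≥1 read per output.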
Turning to G10A A66G A103U U106A G110U G120A C124A G127A, the “polymerase ribozyme fitness (log ratio)” value is -6.98.
For the variant C22G A43U C72G U106A C115A, the “polymerase ribozyme fitness (log ratio)” value is -1.97.
Then C8U C40U A43U G77C, with -1.32.
With G71U U81G C114A, the “polymerase ribozyme fitness (log ratio)” value is -5.63.
Consider A5C G60A C89G G93A A111G, for which the “polymerase ribozyme fitness (log ratio)” value was -4.73.
For the variant U9A C62U, the “polymerase ribozyme fitness (log ratio)” value was found to be 0.575.
In the case of C40U C62A, the “polymerase ribozyme fitness (log ratio)” value is -1.61.
On to A41C G63U G93C G117A U132A, for which the “polymerase ribozyme fitness (log ratio)” value is -4.71.
Then C28G A50C U87A, with -3.39.
A29U G69C U81G U87G: the “polymerase ribozyme fitness (log ratio)” value is -3.43.
For C40U C85A U129G U132C, the “polymerase ribozyme fitness (log ratio)” value was -5.2.
Under G10U C22U G47A U96A C123A stands -5.89.
As to G42U C73G, the “polymerase ribozyme fitness (log ratio)” value is -2.39.
Under A41U G42C C70A stands -6.24; under G110A, -0.79.
C40U C62G G110U: the “polymerase ribozyme fitness (log ratio)” value is -4.6.
In the case of G42C A50C, the “polymerase ribozyme fitness (log ratio)” value was -2.31.
Then G48U G52U A90G A91U C114U, with -2.83; and G61U C86U, with -0.781; and G17U A43U, with -3.34.
With G45A C70G G110A, the “polymerase ribozyme fitness (log ratio)” value was -6.64.
On to C56A G77C C124A, for which the “polymerase ribozyme fitness (log ratio)” value worked out at 1.47.
As to G48A C49U C53A A111U, the “polymerase ribozyme fitness (log ratio)” value was -3.28.
Consider C11U G57A G58U G63U G77U C82G U106A, for which the “polymerase ribozyme fitness (log ratio)” value was -3.25.
Regarding C115A A118U U131A, the “polymerase ribozyme fitness (log ratio)” value is -1.85.
Under U14G C70G stands -3.6; under G60C G69U C80U, -5.8; under G48C U78G, -0.55.
A2U C56A G63A C104A U112A: the “polymerase ribozyme fitness (log ratio)” value was -5.33.
In the case of C40U G42C, the “polymerase ribozyme fitness (log ratio)” value is -2.23.
As for C31G C53A G107C, the “polymerase ribozyme fitness (log ratio)” value was -1.38.
On to C70G C124A G127U U132C, for which the “polymerase ribozyme fitness (log ratio)” value is -0.524.
In the case of C34U A68G C70U, the “polymerase ribozyme fitness (log ratio)” value is -6.49.
G60C A68G: the “polymerase ribozyme fitness (log ratio)” value is -4.8.
Take C3U A29G A46U G61A A66U A83G C86A C101U U132A: the “polymerase ribozyme fitness (log ratio)” value was -4.12.
In the case of C31G C70A, the “polymerase ribozyme fitness (log ratio)” value was -7.42.
Then A50C C72U, with -0.602; and A41U U116C C124U U130A, with -3.9; and A46U C101U A121U, with 0.775.
Under C12U G71C C97U stands -0.967.
In the case of A18U U92A, the “polymerase ribozyme fitness (log ratio)” value was -4.67.
On to C8A C22U G61A U129G, for which the “polymerase ribozyme fitness (log ratio)” value is -4.98.
Turning to G48U G135U, the “polymerase ribozyme fitness (log ratio)” value was -2.2.
Regarding G77A C86U U112A, the “polymerase ribozyme fitness (log ratio)” value came out at 1.14.
For C53A C88G C104A U129A, the “polymerase ribozyme fitness (log ratio)” value was -3.51.
Turning to U7C A27C, the “polymerase ribozyme fitness (log ratio)” value was -2.46.
Under C12U G61C A119U stands -1.74; under G10U U112G C123G, 0.673.
Then A6C A41U U106A, with -1.37.
Under G45A G48C C53U C62U C102U C124G U131C stands -1.71; under C64U A83G A111C, -2.93; under C49G A66C C101G, -4.2.
Turning to C72U C79U G122A, the “polymerase ribozyme fitness (log ratio)” value is -0.67.
G51A C56U: the “polymerase ribozyme fitness (log ratio)” value is -0.934.
For the variant U7C A18C, the “polymerase ribozyme fitness (log ratio)” value is -1.7.
G48U C85G C89U: the “polymerase ribozyme fitness (log ratio)” value was -0.48.
Under G19C C86A stands -2.92; under C22U C73A, -3.74; under A27U A46G C72U G120A, -2.7.
Then G17U U78C, with -2.6; and U59A U126C, with -1.31; and C79G U112C G122C, with -0.637.
Take C72G C79A: the “polymerase ribozyme fitness (log ratio)” value is -0.874.
Consider G52U G63A, for which the “polymerase ribozyme fitness (log ratio)” value was -1.95.
C56U U106G U112G A118C U133G: the “polymerase ribozyme fitness (log ratio)” value was -0.872.
In the case of G42U C49A C53A U59C C82U, the “polymerase ribozyme fitness (log ratio)” value is -2.94.
Regarding G10C C115A G128A, the “polymerase ribozyme fitness (log ratio)” value is -3.1.
In the case of U112C C124A G128A, the “polymerase ribozyme fitness (log ratio)” value turned out to be 0.254.
Regarding A5G C8U G63U C70A C86G, the “polymerase ribozyme fitness (log ratio)” value is 0.268.
As to G36A C102U, the “polymerase ribozyme fitness (log ratio)” value was -3.67.
As to G69C A91U, the “polymerase ribozyme fitness (log ratio)” value was -3.08.
Consider C13G C56U C85A, for which the “polymerase ribozyme fitness (log ratio)” value was -3.69.
Under C12G A18C C56U C80U U112G stands -4.94; under C11A G47A G69U G77U, -1.86.
Under U55G C104U G113C C123A stands -3.72; under A43G A50G C70A C101U, -5.22; under G35A A74U C101U, -4.34.
Take C49G G71A: the “polymerase ribozyme fitness (log ratio)” value was -0.461.
Regarding C8U C13A C20A G113A C123G, the “polymerase ribozyme fitness (log ratio)” value is -1.33.
As for A43C A50C C86U C89A, the “polymerase ribozyme fitness (log ratio)” value was -4.9.
For G58A C62U C88U, the “polymerase ribozyme fitness (log ratio)” value was -0.946.
Take C34A A50U G61A G71C C123G: the “polymerase ribozyme fitness (log ratio)” value was -6.98.
Under G35A G48C stands -4.48; under U9G U32C G52C G110C, -5.7.
